Drawing on US20180222961A1 (IMMATICS BIOTECHNOLOGIES, published 2018), this text covers peptide exchange yield for 61 molecules.

The labels stand for the following.
B1: YPLRGSSIFGL (peptide)
peptide: YPLRGSSIFGL
B2: LPRGPLASLL (peptide)
peptide: LPRGPLASLL
B3: KPGPEDKL (peptide)
peptide: KPGPEDKL
B4: SPASRSISL (peptide)
peptide: SPASRSISL
B5: YPLRGSSI (peptide)
peptide: YPLRGSSI
B6: SPGATSRGTL (peptide)
peptide: SPGATSRGTL
B7: SPTFHLTL (peptide)
peptide: SPTFHLTL
B8: APRPASSL (peptide)
peptide: APRPASSL
B9: FPDNQRPAL (peptide)
peptide: FPDNQRPAL
B10: MPNLPSTTSL (peptide)
peptide: MPNLPSTTSL
B11: YPEGAAYEF (peptide)
peptide: YPEGAAYEF
B12: TVREASGLL (peptide)
peptide: TVREASGLL
B13: LPRPGAVL (peptide)
peptide: LPRPGAVL
B14: FPQSQYPQY (peptide)
peptide: FPQSQYPQY
B15: KPYGGSGPL (peptide)
peptide: KPYGGSGPL
B16: APRAGSQVV (peptide)
peptide: APRAGSQVV
B17: SPMATTSTL (peptide)
peptide: SPMATTSTL
B18: LPYGPGSEAAAF (peptide)
peptide: LPYGPGSEAAAF
B19: YPGFPQSQY (peptide)
peptide: YPGFPQSQY
B20: RPLFQKSSM (peptide)
peptide: RPLFQKSSM
B21: YPTEHVQF (peptide)
peptide: YPTEHVQF
B22: IPRPEVQAL (peptide)
peptide: IPRPEVQAL
B23: SPQSMSNTL (peptide)
peptide: SPQSMSNTL
B24: RPAMNYDKL (peptide)
peptide: RPAMNYDKL
B25: KPSESIYSAL (peptide)
peptide: KPSESIYSAL
B26: FPRLVGPDF (peptide)
peptide: FPRLVGPDF
B27: IPGPAQSTI (peptide)
peptide: IPGPAQSTI
B28: SPSPVSSTL (peptide)
peptide: SPSPVSSTL
B29: SPSPVTSTL (peptide)
peptide: SPSPVTSTL
B30: SPMTSLLTSGL (peptide)
peptide: SPMTSLLTSGL
B31: RVRSTISSL (peptide)
peptide: RVRSTISSL
B32: RPIVPGPLL (peptide)
peptide: RPIVPGPLL
B33: GPREALSRL (peptide)
peptide: GPREALSRL
B34: SPSSPMSTF (peptide)
peptide: SPSSPMSTF
B35: HPGSSALHY (peptide)
peptide: HPGSSALHY
B36: LPSDSHFKITF (peptide)
peptide: LPSDSHFKITF
B37: VPDSGATATAY (peptide)
peptide: VPDSGATATAY
B38: RVRSRISNL (peptide)
peptide: RVRSRISNL
B39: RPAPFEVVF (peptide)
peptide: RPAPFEVVF
B40: APRWFPQPTVV (peptide)
peptide: APRWFPQPTVV
B41: IPMAAVKQAL (peptide)
peptide: IPMAAVKQAL
B42: SPNKGTLSV (peptide)
peptide: SPNKGTLSV
B43: RVEEVRALL (peptide)
peptide: RVEEVRALL
B44: SPRRSPRISF (peptide)
peptide: SPRRSPRISF
B45: VPVYILLDEM (peptide)
peptide: VPVYILLDEM
B46: APLPRPGAVL (peptide)
peptide: APLPRPGAVL
B47: SPRTEASSAVL (peptide)
peptide: SPRTEASSAVL
B48: TPWAESSTKF (peptide)
peptide: TPWAESSTKF
B49: YPLRGSSIF (peptide)
peptide: YPLRGSSIF
B50: APAAWLRSA (peptide)
peptide: APAAWLRSA
B51: KPGTSYRVTL (peptide)
peptide: KPGTSYRVTL
B52: RPLFYVVSL (peptide)
peptide: RPLFYVVSL
B53: LPMWKVTAF (peptide)
peptide: LPMWKVTAF
B54: SPFSAEEANSL (peptide)
peptide: SPFSAEEANSL
B55: APVIFSHSA (peptide)
peptide: APVIFSHSA
B56: YPRTITPGM (peptide)
peptide: YPRTITPGM
B57: APTEDLKAL (peptide)
peptide: APTEDLKAL
B58: TPGLRETSI (peptide)
peptide: TPGLRETSI
B59: VPNQSSESL (peptide)
peptide: VPNQSSESL
B60: SPHPVTALLTL (peptide)
peptide: SPHPVTALLTL
B61: SPAMTSTSF (peptide)
peptide: SPAMTSTSF

In this assay the target is T1, HLA-B*07:02 (human).
T1 construct: also called peptide-receptive MHC molecules
In words: UV-exchange b2m ELISA; exchange-yield grade. The text has this: Candidate peptides for T cell based therapies according to the present invention were further tested for their MHC binding capacity (affinity). The individual peptide-MHC complexes were produced by UV-ligand exchange, where a UV-sensitive peptide is cleaved upon UV-irradiation, and exchanged with the peptide of interest as analyzed. Only peptide candidates that can effectively bind and stabilize the peptide-receptive MHC molecules prevent dissociation of the MHC complexes. To determine the yield of the exchange reaction, an ELISA was performed based on the detection of the light chain (β2m) of stabilized MHC complexes. The assay was performed as generally described in Rodenko et al. (Rodenko et al., 2006).
96 well MAXISorp plates (NUNC) were coated over night with 2 ug/ml streptavidin in PBS at room temperature, washed 4× and blocked for 1 h at 37° C. in 2% BSA containing blocking buffer. Refolded HLA-A*02:01/MLA-001 monomers served as standards, covering the range of 15-500 ng/ml. Peptide-MHC monomers of the UV-exchange reaction were diluted 100-fold in blocking buffer. Samples were incubated for 1 h at 37° C., washed four times, incubated with 2 ug/ml HRP conjugated anti-β2m for 1 h at 37° C., washed again and detected with TMB solution that is stopped with […]. Absorption was measured at 450 nm. Candidate peptides that show a high exchange yield (preferably higher than 50%, most preferred higher than 75%) are generally preferred for a generation and production of antibodies or fragments thereof, and/or T cell receptors or fragments thereof, as they show sufficient avidity to the MHC molecules and prevent dissociation of the MHC complexes.
As to B1, the peptide exchange yield lay within 50 to 75%.

Consider B2, for which the peptide exchange yield is 50 to 75%.

As to B3, the peptide exchange yield was 20 to 50%.

In turn, B4 gave a peptide exchange yield of 50 to 75%.

The molecule B5 gave a peptide exchange yield of 20 to 50%.

The molecule B6 returned a peptide exchange yield of 50 to 75%.

Take B7: the peptide exchange yield was 50 to 75%.

On to B8, for which the peptide exchange yield is 50 to 75%.

For B9, the peptide exchange yield fell in the range of 50 to 75%.

For the molecule B10, the peptide exchange yield is 50 to 75%.

With B11, the peptide exchange yield was 20 to 50%.

As to B12, the peptide exchange yield lay in the range of 50 to 75%.

As for B13, the peptide exchange yield was in the range of 50 to 75%.

Molecule B14 displayed a peptide exchange yield of 50 to 75%.

As to B15, the peptide exchange yield was in the range of 50 to 75%.

B16 yielded a peptide exchange yield of 50 to 75%.

In the case of B17, the peptide exchange yield lay within 50 to 75%.

B18 yielded a peptide exchange yield of 50 to 75%.

The molecule B19 came in with a peptide exchange yield of 20 to 50%.

With B20, the peptide exchange yield was 50 to 75%.

Molecule B21 yielded a peptide exchange yield of 20 to 50%.

B22 came in with a peptide exchange yield of 50 to 75%.

B23 yielded a peptide exchange yield of 50 to 75%.

As for B24, the peptide exchange yield lay in the range of 20 to 50%.

With B25, the peptide exchange yield is 50 to 75%.

Molecule B26 displayed a peptide exchange yield of 50 to 75%.

For the molecule B27, the peptide exchange yield fell in the range of 20 to 50%.

The molecule B28 gave a peptide exchange yield of 50 to 75%.

In turn, B29 came in with a peptide exchange yield of 50 to 75%.

The molecule B30 had a peptide exchange yield of 50 to 75%.

On to B31, for which the peptide exchange yield lay in the range of 50 to 75%.

B32 gave a peptide exchange yield of 50 to 75%.

B33 returned a peptide exchange yield of 50 to 75%.

B34: the peptide exchange yield fell in the range of 20 to 50%.

B35 yielded a peptide exchange yield of 20 to 50%.

On to B36, for which the peptide exchange yield is 50 to 75%.

The molecule B37 showed a peptide exchange yield of 20 to 50%.

As for B38, the peptide exchange yield is 50 to 75%.

For B39, the peptide exchange yield is 50 to 75%.

With B40, the peptide exchange yield lay in the range of 50 to 75%.

As for B41, the peptide exchange yield was 50 to 75%.

With B42, the peptide exchange yield is 50 to 75%.

B43: the peptide exchange yield was 50 to 75%.

For B44, the peptide exchange yield lay in the range of 20 to 50%.

Molecule B45 yielded a peptide exchange yield of 20 to 50%.

B46 registered a peptide exchange yield of 50 to 75%.

In turn, B47 displayed a peptide exchange yield of 50 to 75%.

In the case of B48, the peptide exchange yield lay in the range of 20 to 50%.

The molecule B49 came in with a peptide exchange yield of 50 to 75%.

With B50, the peptide exchange yield was in the range of 20 to 50%.

In turn, B51 returned a peptide exchange yield of 50 to 75%.

The molecule B52 came in with a peptide exchange yield of 20 to 50%.

In turn, B53 yielded a peptide exchange yield of 50 to 75%.

Regarding B54, the peptide exchange yield was 50 to 75%.

B55 yielded a peptide exchange yield of 20 to 50%.

The molecule B56 yielded a peptide exchange yield of 50 to 75%.

B57 displayed a peptide exchange yield of 50 to 75%.

For B58, the peptide exchange yield was in the range of 20 to 50%.

For the molecule B59, the peptide exchange yield is 50 to 75%.

With B60, the peptide exchange yield fell in the range of 50 to 75%.

B61 displayed a peptide exchange yield of 20 to 50%.
